Assay results taken from patent US9371374 (AbbVie / Abbott, dated 2016).

T1: HCV Core1-169 (HCV-1, UniProt P26664 1-169)
T1 construct: also called Solid Phase HCV Core
T1 sequence: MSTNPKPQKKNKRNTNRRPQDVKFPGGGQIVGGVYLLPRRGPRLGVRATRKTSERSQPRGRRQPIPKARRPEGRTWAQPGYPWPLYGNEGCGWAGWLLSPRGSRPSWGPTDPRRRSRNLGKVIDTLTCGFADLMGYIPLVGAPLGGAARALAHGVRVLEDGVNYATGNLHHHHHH


How the values were obtained:
HCV Core1-169 [1] = molecular target: T1, HCV Core1-169; experiment: sandwich EIA, capture C11-9
HCV Core1-169 [2] = molecular target: T1, HCV Core1-169; experiment: sandwich EIA, capture 208A-110
HCV Core1-169 [3] = molecular target: T1, HCV Core1-169; experiment: sandwich EIA, NC capture mAb; note: test concentration or dose not given here
HCV Core1-169 [4] = molecular target: T1, HCV Core1-169; experiment: sandwich EIA, capture 208A-207-271
HCV Core1-169 [5] = molecular target: T1, HCV Core1-169; experiment: sandwich EIA, capture 208B-741
HCV Core1-169 [6] = molecular target: T1, HCV Core1-169; experiment: sandwich EIA, capture 208B-612-226
HCV Core1-169 [7] = molecular target: T1, HCV Core1-169; experiment: sandwich EIA, capture 208B-1096
HCV Core1-169 [8] = molecular target: T1, HCV Core1-169; experiment: sandwich EIA, capture 208A-557
HCV Core1-169 [9] = molecular target: T1, HCV Core1-169; experiment: sandwich EIA, capture 208A-293
HCV Core1-169 [10] = molecular target: T1, HCV Core1-169; experiment: sandwich EIA, capture 208A-692
HCV Core1-169 [11] = molecular target: T1, HCV Core1-169; experiment: sandwich EIA, capture 208B-395-334
HCV Core1-169 [12] = molecular target: T1, HCV Core1-169; experiment: sandwich EIA, capture C11-7
[13] = molecular target: HCV Core 134-171-TT peptide (ALRZ-9 peptide) (HCV-1); experiment: SPR, captured mAb;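 note: Anti-HCV Core mAbs from hybridoma supernatants held on a rabbit anti-mouse IgG CM5 surface, peptide flowed over 3 min then 4 min dissociation, duplicate concentrations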

| Binder | OD492 (HCV Core1-169 [1]) [OD] | OD492 (HCV Core1-169 [2]) [OD] | OD492 (HCV Core1-169 [3]) [OD] | OD492 (HCV Core1-169 [4]) [OD] | OD492 (HCV Core1-169 [5]) [OD] | OD492 (HCV Core1-169 [6]) [OD] | OD492 (HCV Core1-169 [7]) [OD] | OD492 (HCV Core1-169 [8]) [OD] | OD492 (HCV Core1-169 [9]) [OD] | OD492 (HCV Core1-169 [10]) [OD] | OD492 (HCV Core1-169 [11]) [OD] | OD492 (HCV Core1-169 [12]) [OD] | Kd [13] [nM] | koff [13] [s⁻¹] | kon [13] [M⁻¹ s⁻¹] |
| --- | --- | --- | --- | --- | --- | --- | --- | --- | --- | --- | --- | --- | --- | --- | --- |
| HCV 208A-110 (antibody, V domains shown) VH: not shown VL: DIVLTQSPASLAVSLGQRATISCRASQSVSTSRYSYMHWYQQKPGQPPKLLIKYASNLESGVPARFSGSGSGTDFTLNIHPVAEEDTAAYYCQHSWEFPFTFGSGTKLEIKR | 0.13 | 0.18 | 0.15 | 0.17 | 0.2 | 0.2 | 0.21 | 0.17 | 0.2 | 0.14 | 0.22 | 0.18 | 0.33 | 0.00055 | 1.7e+06 |
| HCV 208A-557 (antibody, V domains shown) VH: QGQMQQSGAELVKPGASVKLSCKTSGFTFSSSYISWLKQKPGQSLEWIAWIYAGTGNTNYNQKFTDKAQLTVDTSSSTAYMQLSSLTTEDSAIYYCAISGTGFTYWGQGTLVTVSA VL: DIALTQSPASLAVSLGQRATISCRASQSVSTSRYSYMHWYQQKPGQPPELLIKYASNLESGVPARFSGSGSGTDFTLNIHPVGEEDTATYYCQHSWDFPFTFGSGTKLEIKR | 0.14 | 0.44 | 0.18 | 0.18 | 0.38 | 0.25 | 0.35 | 0.32 | 0.41 | 0.13 | 0.28 | 0.22 | 0.091 | 0.00021 | 2.4e+06 |
| HCV 208A-741 (antibody, V domains shown) VH: QLQQSGPVLVKPGASVMISCKTSGYTFTENAMHWVKQSHGKSLEWIGGVNPNNGDTIFNQKFKGKATLTVDKSSSTAFMELRSLTSEESTVYYCVRRELDFFDYWGQGTSVTVSS VL: DIVLTQSPASLAVSLGQRTTISCGASQSVSTSRFSYMHWYQQKPGQPPKLLIKYASNLESGVPARFSGSGSGTDFTLNIHPVAEEDTAAYYCQHSWEFPFTFGSGTKLEIKR | 2.13 | 0.42 | 0.29 | 0.33 | 0.36 | 0.29 | 0.52 | 0.4 | 0.42 | 0.32 | 0.34 | 2.36 | 0.41 | 0.00069 | 1.7e+06 |
| HCV 208A-293 (antibody, V domains shown) VH: EVQLQQSGPELVKPGASVKISCKASGFTFTEYAMHWMKQSHGKSLEWIGGINPTNGDAIYNQKFKDKAKLTVDRSSSTAYMELRSLTSDDSALFYCARRELDYFPSWGQGTTLTVSS VL: DIVLTQSPASLIVSLGQRATISCRASQSVSTSRFSYVHWIQQKPGQPPKLLIKYASNLESGVPVRFSGSGSGTDFILNIHPVEEEDTATYFCQHSWEFPFTFGSGTKLEIKR | 2.6 | 0.52 | 0.37 | 0.39 | 0.5 | 0.37 | 0.41 | 0.52 | 0.49 | 0.34 | 0.44 | 2.87 | 0.11 | 0.00023 | 2.1e+06 |
| HCV 208A-692 (antibody, V domains shown) VH: QGQMQQSGAELAKPGASVKLSCKTSGFTFSSSYISWLKQKPGQSLEWIAWIFAGTGNTNYNQKFTDKAQLTVDTSSSTAYMQLSSLTTEDSAIYYCAISGTGFTYWGQGTLVTVSA VL: EVLMTQSPLSLPVSLGDQASISCRSSQSLEHSNGNTYLEWFLQRPGQPPKLLIYKVSSRFSGVPDRFSGSGSGTDFTLKISRVEAEDLGVYYCFQGSHVPFTFGSGTKLAIKR | 2.66 | 0.54 | 0.4 | 0.39 | 0.44 | 0.37 | 0.38 | 0.53 | 0.51 | 0.35 | 0.44 | 2.92 | – | – | – |
